Results taken from IntAct's records for PubMed 26365382.

B1: Zinc finger protein RFP (Homo sapiens), P14373 (parent)
chain: MASGSVAECLQQETTCPVCLQYFAEPMMLDCGHNICCACLARCWGTAETNVSCPQCRETFPQRHMRPNRHLANVTQLVKQLRTERPSGPGGEMGVCEKHREPLKLYCEEDQMPICVVCDRSREHRGHSVLPLEEAVEGFKEQIQNQLDHLKRVKDLKKRRRAQGEQARAELLSLTQMEREKIVWEFEQLYHSLKEHEYRLLARLEELDLAIYNSINGAITQFSCNISHLSSLIAQLEEKQQQPTRELLQDIGDTLSRAERIRIPEPWITPPDLQEKIHIFAQKCLFLTESLKQFTEKMQSDMEKIQELREAQLYSVDVTLDPDTAYPSLILSDNLRQVRYSYLQQDLPDNPERFNLFPCVLGSPCFIAGRHYWEVEVGDKAKWTIGVCEDSVCRKGGVTSAPQNGFWAVSLWYGKEYWALTSPMTALPLRTPLQRVGIFLDYDAGEVSFYNVTERCHTFTFSHATFCGPVRPYFSLSYSGGKSAAPLIICPMSGIDGFSGHVGNHGHSMETSP

Variants of: B1
Conditions: with magl2_human MAGEL2, Q9UJ55
magl2_human MAGEL2, Q9UJ55, sequence (Q9UJ55 whole entry): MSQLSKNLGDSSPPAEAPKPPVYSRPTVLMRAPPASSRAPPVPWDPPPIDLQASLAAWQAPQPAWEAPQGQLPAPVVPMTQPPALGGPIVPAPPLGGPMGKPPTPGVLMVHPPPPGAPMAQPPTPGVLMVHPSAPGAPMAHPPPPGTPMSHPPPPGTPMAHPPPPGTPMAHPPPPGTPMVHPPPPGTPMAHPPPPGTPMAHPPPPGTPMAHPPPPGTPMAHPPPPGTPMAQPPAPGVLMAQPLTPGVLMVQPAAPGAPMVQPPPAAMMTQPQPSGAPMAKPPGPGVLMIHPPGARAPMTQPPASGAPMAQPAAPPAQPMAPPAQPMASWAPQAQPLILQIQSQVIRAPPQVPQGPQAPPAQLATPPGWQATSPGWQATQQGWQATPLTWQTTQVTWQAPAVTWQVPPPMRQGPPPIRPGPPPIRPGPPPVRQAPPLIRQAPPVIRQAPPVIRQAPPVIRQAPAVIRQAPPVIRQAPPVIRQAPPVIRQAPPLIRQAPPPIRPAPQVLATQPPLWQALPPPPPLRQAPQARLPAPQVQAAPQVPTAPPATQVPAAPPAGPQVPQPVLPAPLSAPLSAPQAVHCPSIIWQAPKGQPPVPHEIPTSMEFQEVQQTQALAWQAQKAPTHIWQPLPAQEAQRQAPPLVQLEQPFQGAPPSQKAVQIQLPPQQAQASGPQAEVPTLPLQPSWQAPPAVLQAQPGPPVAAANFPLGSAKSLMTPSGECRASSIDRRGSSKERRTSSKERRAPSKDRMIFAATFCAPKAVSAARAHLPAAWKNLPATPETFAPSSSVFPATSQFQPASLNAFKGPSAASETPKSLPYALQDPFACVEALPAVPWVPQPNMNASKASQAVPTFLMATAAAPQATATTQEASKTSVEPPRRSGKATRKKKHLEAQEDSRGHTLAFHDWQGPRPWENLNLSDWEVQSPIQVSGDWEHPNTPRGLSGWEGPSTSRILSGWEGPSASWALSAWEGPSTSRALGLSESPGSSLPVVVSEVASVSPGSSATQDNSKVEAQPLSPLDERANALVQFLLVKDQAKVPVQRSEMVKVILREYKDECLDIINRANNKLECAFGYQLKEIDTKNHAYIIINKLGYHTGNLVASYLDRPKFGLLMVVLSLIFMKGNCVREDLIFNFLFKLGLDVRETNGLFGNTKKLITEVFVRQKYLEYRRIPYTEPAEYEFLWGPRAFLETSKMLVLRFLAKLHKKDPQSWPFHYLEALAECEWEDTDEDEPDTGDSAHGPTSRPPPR

Row | effect of a mutation on the interaction | Variant
1 | with no effect | MASGSVAECLQQETTCPVCLQYFAEPMMLDCGHNICCACLARCWGTAETNVSCPQCRETFPQRHMRPNRHLANVTQLVKQLRTERPSGPGGEMGVCEKHREPLKLYCEEDQMPICVVCDRSREHRGHSVLPLEEAVEGFKEQIQNQLDHLKRVKDLKKRRRAQGEQARAELLSLTQMEREKIVWEFEQLYHSLKEHEYRLLARLEELDLAIYNSINGAITQFSCNISHLSSLIAQLEEKQQQPTRELLQDIGDTLSRAERIRIPEPWITPPDLQEKIHIFAQKCLFLTESLKQFTEKMQSDMERIQELREAQLYSVDVTLDPDTAYPSLILSDNLRQVRYSYLQQDLPDNPERFNLFPCVLGSPCFIAGRHYWEVEVGDRARWTIGVCEDSVCRKGGVTSAPQNGFWAVSLWYGKEYWALTSPMTALPLRTPLQRVGIFLDYDAGEVSFYNVTERCHTFTFSHATFCGPVRPYFSLSYSGGKSAAPLIICPMSGIDGFSGHVGNHGHSMETSP [K304R;K380R;K382R]
